Experimental data: patent publication US20130336893A1 (Sanofi, published 2013)
*1 amine or outer side, *2 acyl side, *3 side chain or, on linkers, in order; H or OH if unused. Where no end group is shown, it is not given here. Side-chain parts run from the residue outwards. [ ]: non-standard residue; d: D form. The star is where a group is joined. γGlu = O=C(O)[C@H](CCC(=O)[*:2])N[*:1]; Palmitoyl = CCCCCCCCCCCCCCCC(=O)*; Aib = CC(C)(N)C(=O)O; GABA = NCCCC(=O)O

B1: SEQ ID NO: (112) (peptide)
peptide: H[dS]QGTFTSDLSKQMES[Aib]AAQLFIEWLKAGGPSSGAPPPSK([γGlu-Palmitoyl])-NH2
modifications: N-terminus assumed
SMILES: CCCCCCCCCCCCCCCC(=O)N[C@@H](CCC(=O)NCCCC[C@H](NC(=O)[C@H](CO)NC(=O)[C@@H]1CCCN1C(=O)[C@@H]1CCCN1C(=O)[C@@H]1CCCN1C(=O)[C@H](C)NC(=O)CNC(=O)[C@H](CO)NC(=O)[C@H](CO)NC(=O)[C@@H]1CCCN1C(=O)CNC(=O)CNC(=O)[C@H](C)NC(=O)[C@H](CCCCN)NC(=O)[C@H](CC(C)C)NC(=O)[C@H](Cc1c[nH]c2ccccc12)NC(=O)[C@H](CCC(=O)O)NC(=O)[C@@H](NC(=O)[C@H](Cc1ccccc1)NC(=O)[C@H](CC(C)C)NC(=O)[C@H](CCC(N)=O)NC(=O)[C@H](C)NC(=O)[C@H](C)NC(=O)C(C)(C)NC(=O)[C@H](CO)NC(=O)[C@H](CCC(=O)O)NC(=O)[C@H](CCSC)NC(=O)[C@H](CCC(N)=O)NC(=O)[C@H](CCCCN)NC(=O)[C@H](CO)NC(=O)[C@H](CC(C)C)NC(=O)[C@H](CC(=O)O)NC(=O)[C@H](CO)NC(=O)[C@@H](NC(=O)[C@H](Cc1ccccc1)NC(=O)[C@@H](NC(=O)CNC(=O)[C@H](CCC(N)=O)NC(=O)[C@@H](CO)NC(=O)[C@@H](N)Cc1c[nH]cn1)[C@@H](C)O)[C@@H](C)O)[C@@H](C)CC)C(N)=O)C(=O)O
B2: SEQ ID NO: (111) (peptide)
peptide: H[dS]QGTFTSDLSKQMES[Aib]AAQDFIEWLKAGGPSSGAPPPSK([γGlu-Palmitoyl])-NH2
modifications: N-terminus assumed
SMILES: CCCCCCCCCCCCCCCC(=O)N[C@@H](CCC(=O)NCCCC[C@H](NC(=O)[C@H](CO)NC(=O)[C@@H]1CCCN1C(=O)[C@@H]1CCCN1C(=O)[C@@H]1CCCN1C(=O)[C@H](C)NC(=O)CNC(=O)[C@H](CO)NC(=O)[C@H](CO)NC(=O)[C@@H]1CCCN1C(=O)CNC(=O)CNC(=O)[C@H](C)NC(=O)[C@H](CCCCN)NC(=O)[C@H](CC(C)C)NC(=O)[C@H](Cc1c[nH]c2ccccc12)NC(=O)[C@H](CCC(=O)O)NC(=O)[C@@H](NC(=O)[C@H](Cc1ccccc1)NC(=O)[C@H](CC(=O)O)NC(=O)[C@H](CCC(N)=O)NC(=O)[C@H](C)NC(=O)[C@H](C)NC(=O)C(C)(C)NC(=O)[C@H](CO)NC(=O)[C@H](CCC(=O)O)NC(=O)[C@H](CCSC)NC(=O)[C@H](CCC(N)=O)NC(=O)[C@H](CCCCN)NC(=O)[C@H](CO)NC(=O)[C@H](CC(C)C)NC(=O)[C@H](CC(=O)O)NC(=O)[C@H](CO)NC(=O)[C@@H](NC(=O)[C@H](Cc1ccccc1)NC(=O)[C@@H](NC(=O)CNC(=O)[C@H](CCC(N)=O)NC(=O)[C@@H](CO)NC(=O)[C@@H](N)Cc1c[nH]cn1)[C@@H](C)O)[C@@H](C)O)[C@@H](C)CC)C(N)=O)C(=O)O
B3: SEQ ID NO: (124) (peptide)
peptide: H[dS]QGTFTSDLSKQMESRRAQDFIEWLKSGGPSSGAPPPK([GABA-Palmitoyl])-NH2
modifications: N-terminus assumed
SMILES: CCCCCCCCCCCCCCCC(=O)NCCCC(=O)NCCCC[C@H](NC(=O)[C@@H]1CCCN1C(=O)[C@@H]1CCCN1C(=O)[C@@H]1CCCN1C(=O)[C@H](C)NC(=O)CNC(=O)[C@H](CO)NC(=O)[C@H](CO)NC(=O)[C@@H]1CCCN1C(=O)CNC(=O)CNC(=O)[C@H](CO)NC(=O)[C@H](CCCCN)NC(=O)[C@H](CC(C)C)NC(=O)[C@H](Cc1c[nH]c2ccccc12)NC(=O)[C@H](CCC(=O)O)NC(=O)[C@@H](NC(=O)[C@H](Cc1ccccc1)NC(=O)[C@H](CC(=O)O)NC(=O)[C@H](CCC(N)=O)NC(=O)[C@H](C)NC(=O)[C@H](CCCNC(=N)N)NC(=O)[C@H](CCCNC(=N)N)NC(=O)[C@H](CO)NC(=O)[C@H](CCC(=O)O)NC(=O)[C@H](CCSC)NC(=O)[C@H](CCC(N)=O)NC(=O)[C@H](CCCCN)NC(=O)[C@H](CO)NC(=O)[C@H](CC(C)C)NC(=O)[C@H](CC(=O)O)NC(=O)[C@H](CO)NC(=O)[C@@H](NC(=O)[C@H](Cc1ccccc1)NC(=O)[C@@H](NC(=O)CNC(=O)[C@H](CCC(N)=O)NC(=O)[C@@H](CO)NC(=O)[C@@H](N)Cc1c[nH]cn1)[C@@H](C)O)[C@@H](C)O)[C@@H](C)CC)C(N)=O
B4: SEQ ID NO: (114) (peptide)
peptide: H[dS]QGTFTSDLSKQMESEAAQLFIEWLKAGGPSSGAPPPSK([γGlu-Palmitoyl])-NH2
modifications: N-terminus assumed
SMILES: CCCCCCCCCCCCCCCC(=O)N[C@@H](CCC(=O)NCCCC[C@H](NC(=O)[C@H](CO)NC(=O)[C@@H]1CCCN1C(=O)[C@@H]1CCCN1C(=O)[C@@H]1CCCN1C(=O)[C@H](C)NC(=O)CNC(=O)[C@H](CO)NC(=O)[C@H](CO)NC(=O)[C@@H]1CCCN1C(=O)CNC(=O)CNC(=O)[C@H](C)NC(=O)[C@H](CCCCN)NC(=O)[C@H](CC(C)C)NC(=O)[C@H](Cc1c[nH]c2ccccc12)NC(=O)[C@H](CCC(=O)O)NC(=O)[C@@H](NC(=O)[C@H](Cc1ccccc1)NC(=O)[C@H](CC(C)C)NC(=O)[C@H](CCC(N)=O)NC(=O)[C@H](C)NC(=O)[C@H](C)NC(=O)[C@H](CCC(=O)O)NC(=O)[C@H](CO)NC(=O)[C@H](CCC(=O)O)NC(=O)[C@H](CCSC)NC(=O)[C@H](CCC(N)=O)NC(=O)[C@H](CCCCN)NC(=O)[C@H](CO)NC(=O)[C@H](CC(C)C)NC(=O)[C@H](CC(=O)O)NC(=O)[C@H](CO)NC(=O)[C@@H](NC(=O)[C@H](Cc1ccccc1)NC(=O)[C@@H](NC(=O)CNC(=O)[C@H](CCC(N)=O)NC(=O)[C@@H](CO)NC(=O)[C@@H](N)Cc1c[nH]cn1)[C@@H](C)O)[C@@H](C)O)[C@@H](C)CC)C(N)=O)C(=O)O
B5: SEQ ID NO: (110) (peptide)
peptide: H[dS]QGTFTSDLSKQMEEEAAKDFIEWLKAGGPSSGAPPPSK([γGlu-Palmitoyl])-NH2
modifications: N-terminus assumed
SMILES: CCCCCCCCCCCCCCCC(=O)N[C@@H](CCC(=O)NCCCC[C@H](NC(=O)[C@H](CO)NC(=O)[C@@H]1CCCN1C(=O)[C@@H]1CCCN1C(=O)[C@@H]1CCCN1C(=O)[C@H](C)NC(=O)CNC(=O)[C@H](CO)NC(=O)[C@H](CO)NC(=O)[C@@H]1CCCN1C(=O)CNC(=O)CNC(=O)[C@H](C)NC(=O)[C@H](CCCCN)NC(=O)[C@H](CC(C)C)NC(=O)[C@H](Cc1c[nH]c2ccccc12)NC(=O)[C@H](CCC(=O)O)NC(=O)[C@@H](NC(=O)[C@H](Cc1ccccc1)NC(=O)[C@H](CC(=O)O)NC(=O)[C@H](CCCCN)NC(=O)[C@H](C)NC(=O)[C@H](C)NC(=O)[C@H](CCC(=O)O)NC(=O)[C@H](CCC(=O)O)NC(=O)[C@H](CCC(=O)O)NC(=O)[C@H](CCSC)NC(=O)[C@H](CCC(N)=O)NC(=O)[C@H](CCCCN)NC(=O)[C@H](CO)NC(=O)[C@H](CC(C)C)NC(=O)[C@H](CC(=O)O)NC(=O)[C@H](CO)NC(=O)[C@@H](NC(=O)[C@H](Cc1ccccc1)NC(=O)[C@@H](NC(=O)CNC(=O)[C@H](CCC(N)=O)NC(=O)[C@@H](CO)NC(=O)[C@@H](N)Cc1c[nH]cn1)[C@@H](C)O)[C@@H](C)O)[C@@H](C)CC)C(N)=O)C(=O)O
B6: SEQ ID NO: (115) (peptide)
peptide: H[dS]QGTFTSDLSKQMEEEAA[Aib]DFIEWLKAGGPSSGAPPPSK([γGlu-Palmitoyl])-NH2
modifications: N-terminus assumed
SMILES: CCCCCCCCCCCCCCCC(=O)N[C@@H](CCC(=O)NCCCC[C@H](NC(=O)[C@H](CO)NC(=O)[C@@H]1CCCN1C(=O)[C@@H]1CCCN1C(=O)[C@@H]1CCCN1C(=O)[C@H](C)NC(=O)CNC(=O)[C@H](CO)NC(=O)[C@H](CO)NC(=O)[C@@H]1CCCN1C(=O)CNC(=O)CNC(=O)[C@H](C)NC(=O)[C@H](CCCCN)NC(=O)[C@H](CC(C)C)NC(=O)[C@H](Cc1c[nH]c2ccccc12)NC(=O)[C@H](CCC(=O)O)NC(=O)[C@@H](NC(=O)[C@H](Cc1ccccc1)NC(=O)[C@H](CC(=O)O)NC(=O)C(C)(C)NC(=O)[C@H](C)NC(=O)[C@H](C)NC(=O)[C@H](CCC(=O)O)NC(=O)[C@H](CCC(=O)O)NC(=O)[C@H](CCC(=O)O)NC(=O)[C@H](CCSC)NC(=O)[C@H](CCC(N)=O)NC(=O)[C@H](CCCCN)NC(=O)[C@H](CO)NC(=O)[C@H](CC(C)C)NC(=O)[C@H](CC(=O)O)NC(=O)[C@H](CO)NC(=O)[C@@H](NC(=O)[C@H](Cc1ccccc1)NC(=O)[C@@H](NC(=O)CNC(=O)[C@H](CCC(N)=O)NC(=O)[C@@H](CO)NC(=O)[C@@H](N)Cc1c[nH]cn1)[C@@H](C)O)[C@@H](C)O)[C@@H](C)CC)C(N)=O)C(=O)O
B7: SEQ ID NO: (113) (peptide)
peptide: H[dS]QGTFTSDLSKQMEEEAAKLFIEWLKAGGPSSGAPPPSK([γGlu-Palmitoyl])-NH2
modifications: N-terminus assumed
SMILES: CCCCCCCCCCCCCCCC(=O)N[C@@H](CCC(=O)NCCCC[C@H](NC(=O)[C@H](CO)NC(=O)[C@@H]1CCCN1C(=O)[C@@H]1CCCN1C(=O)[C@@H]1CCCN1C(=O)[C@H](C)NC(=O)CNC(=O)[C@H](CO)NC(=O)[C@H](CO)NC(=O)[C@@H]1CCCN1C(=O)CNC(=O)CNC(=O)[C@H](C)NC(=O)[C@H](CCCCN)NC(=O)[C@H](CC(C)C)NC(=O)[C@H](Cc1c[nH]c2ccccc12)NC(=O)[C@H](CCC(=O)O)NC(=O)[C@@H](NC(=O)[C@H](Cc1ccccc1)NC(=O)[C@H](CC(C)C)NC(=O)[C@H](CCCCN)NC(=O)[C@H](C)NC(=O)[C@H](C)NC(=O)[C@H](CCC(=O)O)NC(=O)[C@H](CCC(=O)O)NC(=O)[C@H](CCC(=O)O)NC(=O)[C@H](CCSC)NC(=O)[C@H](CCC(N)=O)NC(=O)[C@H](CCCCN)NC(=O)[C@H](CO)NC(=O)[C@H](CC(C)C)NC(=O)[C@H](CC(=O)O)NC(=O)[C@H](CO)NC(=O)[C@@H](NC(=O)[C@H](Cc1ccccc1)NC(=O)[C@@H](NC(=O)CNC(=O)[C@H](CCC(N)=O)NC(=O)[C@@H](CO)NC(=O)[C@@H](N)Cc1c[nH]cn1)[C@@H](C)O)[C@@H](C)O)[C@@H](C)CC)C(N)=O)C(=O)O

What was measured:
human glucagon receptor = human glucagon receptor (human, UniProt P47871 26-477); assay: cell-based or functional assay
human GLP-1 receptor = human GLP-1 receptor (human, UniProt P43220 24-463); assay: cell-based or functional assay

human glucagon receptor, sequence (P47871 26-477): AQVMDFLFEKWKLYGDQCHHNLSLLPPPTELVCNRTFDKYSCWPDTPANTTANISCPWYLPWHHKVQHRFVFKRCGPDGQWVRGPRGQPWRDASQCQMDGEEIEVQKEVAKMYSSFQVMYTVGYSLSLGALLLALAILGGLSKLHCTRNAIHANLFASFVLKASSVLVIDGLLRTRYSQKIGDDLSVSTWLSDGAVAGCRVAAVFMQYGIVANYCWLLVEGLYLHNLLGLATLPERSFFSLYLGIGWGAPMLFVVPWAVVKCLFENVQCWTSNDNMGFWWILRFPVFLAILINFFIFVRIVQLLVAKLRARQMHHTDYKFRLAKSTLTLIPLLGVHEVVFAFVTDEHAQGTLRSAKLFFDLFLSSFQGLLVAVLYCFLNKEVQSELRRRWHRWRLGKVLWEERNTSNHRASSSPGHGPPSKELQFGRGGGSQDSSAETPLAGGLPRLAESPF

Row | Binder | EC50 hGlucagonR (cAMP formation) (human glucagon receptor) | EC50 hGLP-1R (cAMP formation) (human GLP-1 receptor)
1 | B1 | 0.876 nM | 0.0097 nM
2 | B2 | 0.206 nM | 0.0041 nM
3 | B3 | 0.0213 nM | 0.0139 nM
4 | B4 | 0.295 nM | 0.0031 nM
5 | B5 | 0.323 nM | 0.0029 nM
6 | B6 | 0.175 nM | 0.0007 nM
7 | B7 | 0.311 nM | 0.002 nM
8 | HSQGTFTSDLSKQMEEERAKDFIEWLKNGGPSSGAPPPS-NH2 [SEQ ID NO: (17)] | 3.36 nM | 0.0241 nM
